{"source": "patent US12565680B2", "about": "“Cancer neoantigens and their utilities in cancer vaccines and TCR-based cancer immunotherapy” (THE METHODIST HOSPITAL SYSTEM, priority 2018, dated 2026)", "molecules": {"B1": {"name": "… MEGAPAGPGGRTAACLSCTSRCLSRRPWKRSWSAGSCPGMPHRSPDQGRF (peptide)", "chain": "EALAFLMAQGAMLAAQERRVPRAAEVPGAQGQQGPRGREEAPRGVRMAVPLLRRMEGAPAGPGGRTAACLSCTSRCLSRRPWKRSWSAGSCPGMPHRSPDQGRF", "notes": "109 aa peptide from frame-shifted reading frame (ORF2) of CTAG2 (LAGE1b)"}}, "key": {"[1]": {"tested_on": "135TIL", "test": "IFN-γ ELISA with bulk 135TIL (IVT-RNA electroporated 135EBV-B cells; peptide titration and truncation)", "assay_type": "cell-based, human", "details": "serially diluted peptides", "protocol": "Due to low transfection efficiency of EBV-B cells, in vitro transcribed (IVT) RNA of 24 TMGs were generated and then electroporated them into 135EBV-B cells, followed by adding 135TIL cells for antigen recognition based on cytokine release assay.\n96-well tissue culture plates were coated with phosphate-buffered saline (PBS, GenDEPOT) containing 50 μg/ml poly-L-lysine (Millipore Sigma) at 37° C. 10 min later, the plates were rinsed twice with PBS. Tumor cells or 293-APCs were seeded at 5×10^4/well in the 96-well plate and cultured at 37° C., 5% CO2 for at least 4 h. For plasmid transfection, 250 ng of plasmid DNA were transfected into 293-APCs per well with 0.5 μl of Lipofectamine 2000 (Thermo Fisher Scientific) according to the manufacturer's instructions and incubated at 37° C., in 5% CO2 overnight. For peptide presentation, synthesized peptides (GeneScript) were added to each well at different final concentrations from 10^2 to 10^−4 μM and incubated at 37° C., 5% CO2. The cells transfected with plasmids or pulsed with peptides were washed with TCM twice, and then cocultured with T cells (1×10^5/well). […]\n96-well microplate (Greiner Bio-one) was coated with 50 μl of PBS containing anti-human IFN-γ (Thermo Fisher Scientific, primary antibody, 1 μg/ml) per well and incubated at 4° C. overnight. […] The plate was read at OD450 nm. The concentration of IFN-γ was calculated by standard reading. […]"}, "[2]": {"tested_on": "T-cell clones of 135TIL", "test": "IFN-γ ELISA with tumor-reactive T-cell clones of 135TIL", "assay_type": "cell-based, human", "details": "peptide titration; 135-1C1 (ADIPOR2), 135-1E1 (LAGE1b)", "text": "Thus, immunogenic antigens can be generated from various sources or mechanisms [such as alternative ORFs, noncoding regions (3′ and 5′ UTRs, introns, noncoding RNA)]. […] All other tumor-reactive CD4^+ T-cell clones and CD8^+ T-cell clones recognized the mutation-derived neoantigens. […] To identify these two antigens recognized by these two CD4^+ T-cell clones, an Ii-fusion cDNA library derived from 135 mel tumor cells was constructed using experimental procedures. The Ii-fusion cDNA library pools (approximately 100 cDNA clones per pool) were transfected into 293IMDR3/DP4 or 293IMDR4/DP4 cells, followed by co-culturing with CD4^+ T-cell clones (135-1C1 or 135-1E1). After 2×10^5 cDNA clones, positive cDNA library pools that stimulate two T-cell clones, respectively, were identified based on IFN-γ release by ELISA (FIG. 6B). The positive pools were then transformed into Stbl3™ Escherichia coli, and single bacteria colonies were picked for plasmid DNA isolation. […] The 135-1E1 T cell-reactive cDNA clones encoded the product translated from an alternative reading frame of CTAG2 (LAGE1b) (FIG. 6C and FIG. 7A). […]\nT-cell cloning and expansion were performed. […] On day 14, T-cell clones were harvested, counted, tested for tumor reactivity. […]"}}, "data": [{"molecule": "B1", "values": [{"measurement": "recognition of titrated peptides by 135TIL (IFN-γ ELISA)", "setting": "[1]", "result": "little or no activity"}, {"measurement": "recognition of antigen peptides by specific T-cell clones", "setting": "[2]", "result": "strongly recognized"}]}]}
